From paper PMC7305169, “High flavivirus structural plasticity demonstrated by a non-spherical morphological variant” (Nature Communications, 2020)

Target: T1, ZIKV envelope (E) protein, strain H/PF/2013, on purified virus particles (Zika virus (ZIKV-H/PF/2013))
T1 construct: envelope (E) protein of Zika virus strain H/PF/2013, cut product of the viral polyprotein, membrane-anchored on the virus particle; the entire E protein with its transmembrane regions was fitted; Stood on whole virus particles (catSP after 37 °C with Fab C10) together with the M protein and the lipid membrane
Assay: cryoEM micrographs and 2D averages; Fab mixed with purified virus at a molar ratio of 1.5 Fab to E protein; Fab added before exposure to 37 °C (DENV3-CH53489, ZIKV) or after the virus was incubated at 37 °C (DENV3-CH53489); binding seen as spiky surface and Fab density in 2D averages
Details: both partners purified

B1: Fab C10 (Fab, V domains shown)
VH: EVQLVESGAEVKKPGASVKVSCKASGYTFTSYAMHWVRQAPGQRLEWMGWINAGNGNTKYSQKFQDRVTITRDTSASTAYMELSSLRSEDTAIYYCARDKVDDYGDYWFPTLWYFDYWGQGTLVTVS
VL: ALTQPASVSGSPGQSITISCTGTSSDVGGFNYVSWFQQHPGKAPKLMLYDVTSRPSGVSSRFSGSKSGNTASLTISGLQAEDEADYYCSSHTSRGTWVFGGGTKLTVL
notes: Only the variable regions of the Fab were fitted into the maps; also called antibody C10; Fab fragment of antibody C10; source: monoclonal antibody C10 obtained from Gavin Screaton; Fab made from IgG with papain conjugated resins, purified (anion-exchange, gel filtration)
- binding result: binds
